Source: PMC7278938, “The MKK-Dependent Phosphorylation of p38α Is Augmented by Arginine Methylation on Arg49/Arg149 during Erythroid Differentiation” (International Journal of Molecular Sciences, 2020)

What was measured:
[1] = target: T1, Flag-p38α wild type (UniProt Q16539 1-360); test: co-IP; Flag-p38α immunoprecipitated with anti-Flag antibodies and protein G agarose at 4 °C from lysates (1 mg) of p38α-knockdown K562 cells after AraC (1 μM, 5 h); lysis buffer 150 mM NaCl, 20 mM Tris pH 7.4, 0.2% Triton X-100; partners detected by Western blot and quantified; in Figure 6D with or without HA-PRMT1; conditions: partners not purified
T1 construct: also called p38α WT; WT; source: K562 p38α-knockdown cells, transfected (pFlag-CMV2-p38α), in lysate

[2] = target: T1, Flag-p38α wild type; test: cell-based or functional assay
[3] = target: Flag-p38α R49/149K mutant (UniProt Q16539 1-360, R49/149K | R49/149K); test: cell-based or functional assay
Chain of Flag-p38α R49/149K mutant (Q16539 other isoform, or with tags, fused parts or gaps R49/149K | R49/149K | R49/149K | R49/149K | mutant): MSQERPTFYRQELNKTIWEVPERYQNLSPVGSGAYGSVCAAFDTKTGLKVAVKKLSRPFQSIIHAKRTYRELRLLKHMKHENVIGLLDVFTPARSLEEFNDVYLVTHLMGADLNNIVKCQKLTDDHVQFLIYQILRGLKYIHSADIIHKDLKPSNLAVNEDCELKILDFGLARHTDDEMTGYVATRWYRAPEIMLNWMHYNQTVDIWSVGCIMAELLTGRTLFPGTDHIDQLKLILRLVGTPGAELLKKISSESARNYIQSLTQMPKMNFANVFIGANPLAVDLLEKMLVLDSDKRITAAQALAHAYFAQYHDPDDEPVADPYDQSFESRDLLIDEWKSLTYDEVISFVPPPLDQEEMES

T1 sequence (Q16539 whole entry): as the sequence (Q16539 other isoform, or with tags, fused parts or gaps R49/149K | R49/149K | R49/149K | R49/149K | mutant) above, with K49R, K149R counted along it

- fold change of the interaction with HA-PRMT1 against without [1]: 1.7 fold
- sorbitol (150 mM)-induced activation phosphorylation of Flag-p38α at 0.5 h (Western blot with anti-phospho-p38) [2]: ~4 fold
- sorbitol (150 mM)-induced activation phosphorylation of Flag-p38α at 0.5 h (Western blot with anti-phospho-p38) [3]: ~2 fold
B1: MAPK kinase 3 (MKK3) (enzyme, human (endogenous in K562), UniProt P46734 1-347, looked up)
chain: MESPASSQPASMPQSKGKSKRKKDLRISCMSKPPAPNPTPPRNLDSRTFITIGDRNFEVEADDLVTISELGRGAYGVVEKVRHAQSGTIMAVKRIRATVNSQEQKRLLMDLDINMRTVDCFYTVTFYGALFREGDVWICMELMDTSLDKFYRKVLDKNMTIPEDILGEIAVSIVRALEHLHSKLSVIHRDVKPSNVLINKEGHVKMCDFGISGYLVDSVAKTMDAGCKPYMAPERINPELNQKGYNVKSDVWSLGITMIEMAILRFPYESWGTPFQQLKQVVEEPSPQLPADRFSPEFVDFTAQCLRKNPAERMSYLELMEHPFFTLHKTKKTDIAAFVKEILGEDS
notes: MKK3 (MAPK kinase 3), endogenous in human K562 cells, detected with anti-MKK3 (Cell Signaling #5674); source: endogenous, K562 lysate
